One block for each molecule: values may come before it.
How the values were obtained:
Hif1α = Hif1α (UniProt Q16665); assay: co-IP and immunoblot; conditions: reference: wild type, EGF + IL-2; sites Y30,Y64,Y86
[1] = biological target: His-tagged β-catenin–WT, tyrosine-phosphorylated form (P–β-catenin) (UniProt P35222); assay: ELISA; called a pairwise binding assay, done as in refs. 19, 20; by the legends a β-catenin-coated 96-well microtiter plate with Jak3 added, optical density read; Kd by Hyperbol-fit (MicroCal Origin)
[2] = biological target: T1, Autophosphorylated GST-tagged Jak3-WT (P-Jak3-WT) (UniProt P52333 1-1124, autophosphorylated on tyrosine (sites not given)); assay: as above; conditions: both partners purified
T1 construct: also called phosphorylated Jak3; source: E. coli BL-21, purified, autophosphorylated
T1 sequence (looked up): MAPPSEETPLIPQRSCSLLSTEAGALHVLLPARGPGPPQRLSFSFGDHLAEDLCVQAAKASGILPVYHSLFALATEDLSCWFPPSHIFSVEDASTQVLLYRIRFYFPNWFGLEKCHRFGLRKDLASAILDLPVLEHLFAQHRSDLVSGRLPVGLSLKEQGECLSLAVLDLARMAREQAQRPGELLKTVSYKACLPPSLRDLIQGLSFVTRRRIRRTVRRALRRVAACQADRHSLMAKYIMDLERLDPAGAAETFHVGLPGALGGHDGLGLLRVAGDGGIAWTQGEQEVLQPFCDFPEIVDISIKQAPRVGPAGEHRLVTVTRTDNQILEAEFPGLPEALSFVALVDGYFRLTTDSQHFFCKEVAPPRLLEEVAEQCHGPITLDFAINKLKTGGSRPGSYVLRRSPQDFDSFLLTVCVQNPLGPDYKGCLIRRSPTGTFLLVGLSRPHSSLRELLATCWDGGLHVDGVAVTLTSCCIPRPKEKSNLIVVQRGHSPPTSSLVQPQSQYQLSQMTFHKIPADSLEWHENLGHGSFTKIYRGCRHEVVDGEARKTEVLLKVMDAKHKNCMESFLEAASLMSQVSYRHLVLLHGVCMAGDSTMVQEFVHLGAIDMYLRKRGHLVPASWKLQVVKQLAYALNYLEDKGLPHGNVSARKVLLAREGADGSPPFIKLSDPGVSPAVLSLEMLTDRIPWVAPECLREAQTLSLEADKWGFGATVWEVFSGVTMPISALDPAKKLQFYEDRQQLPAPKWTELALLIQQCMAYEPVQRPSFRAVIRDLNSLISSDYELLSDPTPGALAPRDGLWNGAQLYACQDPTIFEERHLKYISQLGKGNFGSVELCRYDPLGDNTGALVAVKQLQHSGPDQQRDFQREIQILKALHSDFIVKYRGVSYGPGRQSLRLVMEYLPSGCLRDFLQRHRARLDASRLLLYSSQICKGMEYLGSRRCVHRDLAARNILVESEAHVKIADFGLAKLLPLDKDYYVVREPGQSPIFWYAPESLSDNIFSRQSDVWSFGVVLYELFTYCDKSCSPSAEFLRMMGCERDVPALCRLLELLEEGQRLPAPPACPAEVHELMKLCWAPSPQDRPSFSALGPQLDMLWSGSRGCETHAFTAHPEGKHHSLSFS

binding against the reference (Hif1α): stronger
Molecule: β-catenin (from UniProt P35222) Y30F,Y64F,Y86F, EGF + IL-2

fold decrease of the interaction against Jak3-WT [1]: > 4 fold
Molecule: Jak3 with the kinase domain deleted (domain or fragment)

Kd [2]: 0.28 µM
B1: His-tagged β-catenin–WT, tyrosine-phosphorylated form (P–β-catenin) (natural protein, UniProt P35222 1-781, looked up)
chain: MATQADLMELDMAMEPDRKAAVSHWQQQSYLDSGIHSGATTTAPSLSGKGNPEEEDVDTSQVLYEWEQGFSQSFTQEQVADIDGQYAMTRAQRVRAAMFPETLDEGMQIPSTQFDAAHPTNVQRLAEPSQMLKHAVVNLINYQDDAELATRAIPELTKLLNDEDQVVVNKAAVMVHQLSKKEASRHAIMRSPQMVSAIVRTMQNTNDVETARCTAGTLHNLSHHREGLLAIFKSGGIPALVKMLGSPVDSVLFYAITTLHNLLLHQEGAKMAVRLAGGLQKMVALLNKTNVKFLAITTDCLQILAYGNQESKLIILASGGPQALVNIMRTYTYEKLLWTTSRVLKVLSVCSSNKPAIVEAGGMQALGLHLTDPSQRLVQNCLWTLRNLSDAATKQEGMEGLLGTLVQLLGSDDINVVTCAAGILSNLTCNNYKNKMMVCQVGGIEALVRTVLRAGDREDITEPAICALRHLTSRHQEAEMAQNAVRLHYGLPVVVKLLHPPSHWPLIKATVGLIRNLALCPANHAPLREQGAIPRLVQLLVRAHQDTQRRTSMGGTQQQFVEGVRMEEIVEGCTGALHILARDVHNRIVIRGLNTIPLFVQLLYSPIENIQRVAAGVLCELAQDKEAAEAIEAEGATAPLTELLHSRNEGVATYAAAVLFRMSEDKPQDYKKRLSVELTSSLFRTEPMAWNETADLGLDIGAQGEPLGYRQDDPSYRSFHSGGYGQDALGMDPMMEHEMGGHHPGADYPVDGLPDLGHAQDLMDGLPPGDSNQLAWFDTDL
modifications: tyrosine-phosphorylated (made in TKX1; sites not stated)
notes: β-catenin, wild type, full-length cDNA; also called phosphorylated β-catenin; source: E. coli TKX1, purified

Reference: article PMC5633104 (The Journal of Biological Chemistry, 2017)
